Patent US11732043 (MERUS N V, dated 2023)
Like-named read-outs stand apart in the source and are kept apart here.

Assays:
[1] = molecular target: T1, human LAG-3 (huLAG-3), full length, expressed on the cell surface (human, UniProt P18627 23-525)
T1 sequence: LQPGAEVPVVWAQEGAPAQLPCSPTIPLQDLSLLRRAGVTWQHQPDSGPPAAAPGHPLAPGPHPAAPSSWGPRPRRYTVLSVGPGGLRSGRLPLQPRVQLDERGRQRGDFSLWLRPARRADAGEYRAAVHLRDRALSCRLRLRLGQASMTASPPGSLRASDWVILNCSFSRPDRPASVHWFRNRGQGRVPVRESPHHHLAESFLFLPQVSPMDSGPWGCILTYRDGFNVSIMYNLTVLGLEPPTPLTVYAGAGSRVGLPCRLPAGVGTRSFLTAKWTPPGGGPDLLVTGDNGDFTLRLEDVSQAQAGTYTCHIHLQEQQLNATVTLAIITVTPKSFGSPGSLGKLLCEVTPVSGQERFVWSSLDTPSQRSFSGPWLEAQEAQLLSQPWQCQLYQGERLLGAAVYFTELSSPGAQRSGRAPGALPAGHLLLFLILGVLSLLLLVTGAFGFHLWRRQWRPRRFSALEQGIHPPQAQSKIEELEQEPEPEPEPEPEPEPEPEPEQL

[2] = molecular target: T2, LAG-3 overexpressed on Jurkat/NFAT-RE reporter cells (Promega) (UniProt P18627 23-525); assay: cell-based or functional assay
T2 sequence (looked up): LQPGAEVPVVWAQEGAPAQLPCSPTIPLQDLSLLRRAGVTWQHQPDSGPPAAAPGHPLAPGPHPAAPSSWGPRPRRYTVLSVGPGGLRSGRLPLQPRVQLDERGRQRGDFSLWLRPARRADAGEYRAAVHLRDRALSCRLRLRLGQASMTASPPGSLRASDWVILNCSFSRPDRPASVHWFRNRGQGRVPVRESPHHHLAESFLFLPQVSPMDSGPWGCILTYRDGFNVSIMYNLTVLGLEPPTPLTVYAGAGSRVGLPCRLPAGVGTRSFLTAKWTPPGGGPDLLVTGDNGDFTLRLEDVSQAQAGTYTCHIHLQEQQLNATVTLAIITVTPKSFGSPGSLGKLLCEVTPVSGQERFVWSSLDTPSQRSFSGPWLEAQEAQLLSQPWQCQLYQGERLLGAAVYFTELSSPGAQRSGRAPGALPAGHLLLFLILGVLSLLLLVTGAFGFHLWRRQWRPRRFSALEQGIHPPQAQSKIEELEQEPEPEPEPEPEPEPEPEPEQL

[3] = molecular target: T1, human LAG-3 (huLAG-3), full length, …; assay: FACS on HEK293T cells with mouse/human LAG-3 hybrid constructs, bivalent IgG; bin = human domain bound
[4] = molecular target: T1, human LAG-3 (huLAG-3), full length, …
[5] = molecular target: T1, human LAG-3 (huLAG-3), full length, …; remark: listed apart in the source

B1: MG7133 (monovalent) (bispecific antibody, V domains shown)
VH 1: EVQLVQSGAEVKKPGSSVKVSCKASGGTFSSHAISWVRQVPGQGLEWMGGIIPLFDTAKNAQKFQGRVTITADKSTSTAYMELSSLRSEDTAVYYCARDRETGTLYYFDYWGQGTLVTVSS
VH 2: not shown
VL: not shown
- EC50 [1]: 11.2 µg/mL

B2: bivalent LAG-3 IgG with MF7118 variable domains (antibody, V domains shown)
VH: EVQLVESGGGLVQPGGSLRLSCAASGFTFSSYAMSWVRQAPGKGLEWVSSISGGGVSTFYADSVKGRFTISRDNSKNTLYLQMNSLRAEDTAVYYCAIVPAAATPSGTYYWIFDLWGRGTLVTVSS
VL: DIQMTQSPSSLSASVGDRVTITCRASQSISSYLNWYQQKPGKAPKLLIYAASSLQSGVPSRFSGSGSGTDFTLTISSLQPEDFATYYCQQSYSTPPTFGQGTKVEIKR
- LAG-3 blockade reporter assay (Jurkat LAG-3 reporter cells with Raji MHCII cells), activity as bivalent IgG, AUC [2]: 2.04 % of control

B3: MG7144 (monovalent) (bispecific antibody, V domains shown)
VH 1: QVQLVQSGAEVRKPGSSVMVSCKASGGTFSTYAINWLRQAPGQGLEWMGGIIPIFGTPYYGQRFQGRVTITADKSTNTVFMELSSLRSEDTAIYYCARDRDSGGLYYFDSWGQGTLVTVSS
VH 2: not shown
VL: not shown
- EC50 [1]: 10.2 µg/mL

B4: bivalent LAG-3 IgG with MF7106 variable domains (antibody, V domains shown)
VH: QVQLVQSGAEVKKPGSSVKVSCKASGGTFSKYVVSWVRQAPGQGFDWMGGIIPMFGTANYAQMFQGRVTITADKSTSTVNMELSSLRSEDTAVYYCVRDKAVAGLYYFDSWGQGTLVTVSS
VL: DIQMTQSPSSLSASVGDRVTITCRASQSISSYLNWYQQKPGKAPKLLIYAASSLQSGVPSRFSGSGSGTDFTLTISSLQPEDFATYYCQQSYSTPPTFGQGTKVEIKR
- LAG-3 blockade reporter assay (Jurkat LAG-3 reporter cells with Raji MHCII cells), activity as bivalent IgG, AUC [2]: 16.3 % of control

B5: MG7106 (monovalent) (bispecific antibody)
VH 1: QVQLVQSGAEVKKPGSSVKVSCKASGGTFSKYVVSWVRQAPGQGFDWMGGIIPMFGTANYAQMFQGRVTITADKSTSTVNMELSSLRSEDTAVYYCVRDKAVAGLYYFDSWGQGTLVTVSS
VH 2: not shown
light: not shown
- EC50 [1]: 26.5 µg/mL

B6: bivalent LAG-3 IgG with MF7518 variable domains (antibody, V domains shown)
VH: QVQLVQSGAEVKKPGASVKVSCKASGYTFTSYGISWVRQAPGQGLEWMGWISAYSGNTNYAQKLQGRVTMTTDTSTSTAYMELRSLRSDDTAVYYCARDGSGWDDFDYWGQGTLVTVSS
VL: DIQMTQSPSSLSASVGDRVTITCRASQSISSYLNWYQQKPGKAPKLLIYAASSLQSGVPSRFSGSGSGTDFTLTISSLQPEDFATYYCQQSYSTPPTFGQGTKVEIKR
- LAG-3 blockade reporter assay (Jurkat LAG-3 reporter cells with Raji MHCII cells), activity as bivalent IgG, AUC [2]: 64.7 % of control

B7: bivalent LAG-3 IgG with MF7134 variable domains (antibody, V domains shown)
VH: EVQLVQSGSELKKPGASVKVSCKASGYTFTTNALNWVRQAPGQGLEWMGWINTHTGNPTYAQGFIGRFVFSLDTSVSTAYLQIRSLKAEDTAVYYCAREPNWGVYFDYWGQGTLVTVSS
VL: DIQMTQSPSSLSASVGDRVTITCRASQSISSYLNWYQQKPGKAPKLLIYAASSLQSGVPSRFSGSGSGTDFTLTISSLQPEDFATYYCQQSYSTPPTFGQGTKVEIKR
- LAG-3 blockade reporter assay (Jurkat LAG-3 reporter cells with Raji MHCII cells), activity as bivalent IgG, AUC [2]: 34.3 % of control

B8: bivalent LAG-3 IgG with MF7515 variable domains (antibody, V domains shown)
VH: QVQLVQSGAEVKKPGASVKVSCKASGYTFTSYGISWVRQAPGQGLEWMGWISAYSGNTNYAQKLQGRVTMTTDTSTSTAYMELRSLRSDDTAVYYCARRPGPALGDLDSWGQGTLVTVSS
VL: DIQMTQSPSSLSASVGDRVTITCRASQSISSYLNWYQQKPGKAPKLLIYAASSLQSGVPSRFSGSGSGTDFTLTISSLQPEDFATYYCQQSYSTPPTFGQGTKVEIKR
notes: Bivalent monospecific IgG; copies: 2 + 2
- binding result [3]: binds

B9: bivalent LAG-3 IgG with MF7096 variable domains (antibody, V domains shown)
VH: QVQLQESGPGLVRPSETLSLTCTVSGGSISSYSWSWIRQPPGKGLEWIGYIDYSGSTNYNPSLKSRVTISVDTSKTQFSLKLSSVSAADTAVYYCAKDLLYKWNYVEGFDIWGQGTTVTVSS
VL: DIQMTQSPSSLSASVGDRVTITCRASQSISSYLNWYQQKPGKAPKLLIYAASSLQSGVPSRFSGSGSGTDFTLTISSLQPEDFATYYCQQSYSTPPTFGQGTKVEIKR
- LAG-3 blockade reporter assay (Jurkat LAG-3 reporter cells with Raji MHCII cells), activity as bivalent IgG, AUC [2]: 35.7 % of control

B10: bivalent LAG-3 IgG with MF7097 variable domains (antibody, V domains shown)
VH: QVQLQESGPGLVKPSETLSLTCTVSGGSISSYSWSWIRQPPGKGLEWIGYIDYSGTTNFNPSLKSRVTISVDTSKTQFSLKLSSVSAADTAVYYCAKDLLYKWNYVEGFDIWGQGTMVTVSS
VL: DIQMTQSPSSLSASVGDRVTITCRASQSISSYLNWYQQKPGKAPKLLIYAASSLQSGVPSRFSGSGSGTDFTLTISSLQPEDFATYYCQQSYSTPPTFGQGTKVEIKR
- LAG-3 blockade reporter assay (Jurkat LAG-3 reporter cells with Raji MHCII cells), activity as bivalent IgG, AUC [2]: 21.4 % of control

B11: H4sH15482P* (antibody, V domains shown)
VH: QVQLVESGGGVVQPGRSLRLSCVASGFTFSSYGMHWVRQAPGKGLEWVAIIWYDGSNKYYADSVKGRFTISRDNSKNTQYLQMNSLRAEDTAVYYCASVATSGDFDYYGMDVWGQGTTVTVSS
VL: EIVLTQSPATLSLSPGERTTLSCRASQRISTYLAWYQQKPGQAPRLLIYDASKRATGIPARFSGSGSGTGFTLTISSLEPEDFAVYYCQQRSNWPLTFGGGTKVEIKR
- EC50 (read off the curve) [4]: ~0.1 µg/mL

B12: MG7139 (monovalent) (bispecific antibody, V domains shown)
VH 1: QVQLVQSGAEVKKPGSSVKVSCKASGGTFSNFAFSWVRQAPGQGLEWMGGIIPMFDTAKYAQKFQGRVTIIADKSTNTAYMDLNSLRSEDTAVYYCVRDRAIGTLYYFDYWGQGTLVTVSS
VH 2: not shown
VL: not shown
- EC50 [1]: 5.71 µg/mL

B13: PG7116, bivalent LAG-3 IgG with two MF7116 variable domains (antibody, V domains shown)
VH: EVQLVESGGGVVQPGRSLRLSCAASGFTFSSYGMHWVRQAPGKGLEWVAVISYHGSDKYYADSVKGRFTISRDNSKNTLYLQMNSLRAEDTAVYYCARDGDNWDVFDIWGQGTLVTVSS
VL: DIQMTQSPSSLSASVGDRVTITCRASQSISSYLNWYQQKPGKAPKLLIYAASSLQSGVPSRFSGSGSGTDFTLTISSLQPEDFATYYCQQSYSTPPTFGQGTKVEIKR
notes: Bivalent monospecific IgG
- LAG-3 blockade reporter assay (Jurkat LAG-3 reporter cells with Raji MHCII cells), activity as bivalent IgG, AUC [2]: 57.1 % of control
- EC50 (read off the curve) [5]: ~0.1 µg/mL

B14: bivalent LAG-3 IgG with MF7100 variable domains (antibody, V domains shown)
VH: EVQLVESGGGVVQPGRSLRLSCAASGFTFSSYDTHWVRQAPGKGLEWVAVISYDGSNKYYADSVKGRFTISRDNSKNTLYLQMNSLRAEDTAMYYCARERGWDVFDIWGQGTLVTVSS
VL: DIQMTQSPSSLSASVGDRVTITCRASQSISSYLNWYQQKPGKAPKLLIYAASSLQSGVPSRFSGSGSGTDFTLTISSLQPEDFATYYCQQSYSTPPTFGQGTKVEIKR
- LAG-3 blockade reporter assay (Jurkat LAG-3 reporter cells with Raji MHCII cells), activity as bivalent IgG, AUC [2]: 39.8 % of control

B15: MG7524 (monovalent) (bispecific antibody, V domains shown)
VH 1: QVQLVQSGAEVKKPGASVKVSCKASGYTFTSYGISWVRQAPGQGLEWMGWISAYSGNTNYAQKLQGRVTMTTDTSTSTAYMELRSLRSDDTAVYYCARGSILAAQMWGDIWGQGTLVTVSS
VH 2: not shown
VL: not shown
- EC50 [1]: 4.2 µg/mL

B16: bivalent LAG-3 IgG with MF7111 variable domains (antibody, V domains shown)
VH: QVQLQESGPGLVKPSETLSLTCTVSDDSISDYYWSWIRQPPGKGLEWIGYIYYSGNTKYNPSLKNRVTISVDTSKSQFSLKLTSVTAADTAVYYCARIPLTGEFDYWAQGTLVTVSS
VL: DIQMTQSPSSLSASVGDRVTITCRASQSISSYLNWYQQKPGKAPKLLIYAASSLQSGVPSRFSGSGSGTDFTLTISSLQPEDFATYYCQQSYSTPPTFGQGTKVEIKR
- LAG-3 blockade reporter assay (Jurkat LAG-3 reporter cells with Raji MHCII cells), activity as bivalent IgG, AUC [2]: 51.2 % of control

B17: bivalent LAG-3 IgG with MF7146 variable domains (antibody, V domains shown)
VH: EVQLVQSGAEVKKPGSSVKVSCKASGGTFNNYFITWVRQAPGQGLEWMGGIIPSFGTGNYAQKFQGRVAITADKSTNTAYMELSSLRSEDTAIYYCVRDREVGAIYYFDYWGQGTMVTVSS
VL: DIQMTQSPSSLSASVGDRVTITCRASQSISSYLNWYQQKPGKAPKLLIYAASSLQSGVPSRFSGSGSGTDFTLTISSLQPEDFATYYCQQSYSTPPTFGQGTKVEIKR
notes: as for B8
- binding result [3]: binds

B18: bivalent LAG-3 IgG with MF7165 variable domains (antibody, V domains shown)
VH: QVQLVQSGAEVRKPGASVKVSCKVSGYTLTELSIHWVRQAPGKGLEWMGAFDPEDGETIYAQKFQGRVTMTEDTSTDTAYMELSSLRSEDTAVYFCATGGTYYYGSGSYYTLDYWGQGTLVTVSS
VL: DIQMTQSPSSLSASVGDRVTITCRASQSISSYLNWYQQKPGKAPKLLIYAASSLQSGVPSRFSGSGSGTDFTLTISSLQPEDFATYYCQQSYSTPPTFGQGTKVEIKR
notes: as for B8
- binding result [3]: binds

B19: bivalent LAG-3 IgG with MF7137 variable domains (antibody, V domains shown)
VH: QVQLVQSGAEVKRPGASVKVSCKVSGYTLTELSMHWVRQAPGKGLEWMGGSDPEHGETVDAQKFQGRVTMTEDTSTDTAYMELSSLRSEDTAVYYCTTGGTYYYGSGSYYTLDFWGQGTLVTVSS
VL: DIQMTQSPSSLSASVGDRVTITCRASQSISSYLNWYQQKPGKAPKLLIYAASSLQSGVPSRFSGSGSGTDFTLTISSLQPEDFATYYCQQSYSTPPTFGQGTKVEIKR
- LAG-3 blockade reporter assay (Jurkat LAG-3 reporter cells with Raji MHCII cells), activity as bivalent IgG, AUC [2]: 51.2 % of control

B20: bivalent LAG-3 IgG with MF7167 variable domains (antibody, V domains shown)
VH: EVQLVESGGGLVQPGGSLRLSCAASGFTFSSYAMNWVRQAPGKGLEWVSTISGSGVSTYYADSVKGRFTISRDNSKNTLYLQMNTLRAEDTAVYYCAKDRGYDYSGSYHNWFDPWGQGTLVTVSS
VL: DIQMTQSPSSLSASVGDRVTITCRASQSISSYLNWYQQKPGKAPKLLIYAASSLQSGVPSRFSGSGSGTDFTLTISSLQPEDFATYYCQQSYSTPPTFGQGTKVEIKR
- LAG-3 blockade reporter assay (Jurkat LAG-3 reporter cells with Raji MHCII cells), activity as bivalent IgG, AUC [2]: -1.33 % of control

B21: bivalent LAG-3 IgG with MF7185 variable domains (antibody, V domains shown)
VH: QVQLVQSGAEVKKPGSSVKVSCKTSGGTFSNYAFSWVRQAPGQGLEWMGGIIPIFGSTNYAQSFQGRVTITADKSTSTAYMELSSLRSEDTAVYYCARDREMGTLYFFDQWGQGTTVTVSS
VL: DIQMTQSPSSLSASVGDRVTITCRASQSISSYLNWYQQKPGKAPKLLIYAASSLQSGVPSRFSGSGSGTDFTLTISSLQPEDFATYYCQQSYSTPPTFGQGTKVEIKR
- LAG-3 blockade reporter assay (Jurkat LAG-3 reporter cells with Raji MHCII cells), activity as bivalent IgG, AUC [2]: 20.9 % of control

B22: MG7185 (monovalent) (bispecific antibody, V domains shown)
VH 1: QVQLVQSGAEVKKPGSSVKVSCKTSGGTFSNYAFSWVRQAPGQGLEWMGGIIPIFGSTNYAQSFQGRVTITADKSTSTAYMELSSLRSEDTAVYYCARDREMGTLYFFDQWGQGTTVTVSS
VH 2: not shown
VL: not shown
- EC50 [1]: 4.49 µg/mL

B23: MG7137 (monovalent) (bispecific antibody)
VH 1: QVQLVQSGAEVKRPGASVKVSCKVSGYTLTELSMHWVRQAPGKGLEWMGGSDPEHGETVDAQKFQGRVTMTEDTSTDTAYMELSSLRSEDTAVYYCTTGGTYYYGSGSYYTLDFWGQGTLVTVSS
VH 2: not shown
light: not shown
- EC50 [1]: 1.68 µg/mL
